Experimental data from publication PMC9712113, “Medin co-aggregates with vascular amyloid-β in Alzheimer’s disease” (Nature, 2022).

Molecular target: the molecule itself
Experiment: Thioflavin T fluorescence seeding assay; 10 µM monomeric Met-Aβ or CT-medin with 0.5 µM sonicated pre-formed seeds of either peptide; 50 mM Tris pH 8, 25 µM ThT, 30 °C

B1: C-terminal fragment of medin (peptide)
peptide: EVTGIITQGARNFGSVQFVASYK
notes: C-terminal fragment of medin / MFG-E8, identified in tissue extracts by mass spectrometry; also called CT-medin; C-terminal medin fragment; source: synthetic peptide (Intavis Multipep RSi solid phase synthesis, purity >90%)
Q: Does B1 bind?
A: binds
